# B1: SNF1-related protein kinase catalytic subunit alpha KIN10 (Arabidopsis thaliana (Mouse-ear cress)), Q38997 (parent)
# chain: MDGSGTGSRSGVESILPNYKLGRTLGIGSFGRVKIAEHALTGHKVAIKILNRRKIKNMEMEEKVRREIKILRLFMHPHIIRLYEVIETPTDIYLVMEYVNSGELFDYIVEKGRLQEDEARNFFQQIISGVEYCHRNMVVHRDLKPENLLLDSKCNVKIADFGLSNIMRDGHFLKTSCGSPNYAAPEVISGKLYAGPEVDVWSCGVILYALLCGTLPFDDENIPNLFKKIKGGIYTLPSHLSPGARDLIPRMLVVDPMKRVTIPEIRQHPWFQAHLPRYLAVPPPDTVQQAKKIDEEILQEVINMGFDRNHLIESLRNRTQNDGTVTYYLILDNRFRASSGYLGAEFQETMEGTPRMHPAESVASPVSHRLPGLMEYQGVGLRSQYPVERKWALGLQSRAHPREIMTEVLKALQDLNVCWKKIGHYNMKCRWVPNSSADGMLSNSMHDNNYFGDESSIIENEAAVKSPNVVKFEIQLYKTRDDKYLLDLQRVQGPQFLFLDLCAAFLAQLRVL
# partner: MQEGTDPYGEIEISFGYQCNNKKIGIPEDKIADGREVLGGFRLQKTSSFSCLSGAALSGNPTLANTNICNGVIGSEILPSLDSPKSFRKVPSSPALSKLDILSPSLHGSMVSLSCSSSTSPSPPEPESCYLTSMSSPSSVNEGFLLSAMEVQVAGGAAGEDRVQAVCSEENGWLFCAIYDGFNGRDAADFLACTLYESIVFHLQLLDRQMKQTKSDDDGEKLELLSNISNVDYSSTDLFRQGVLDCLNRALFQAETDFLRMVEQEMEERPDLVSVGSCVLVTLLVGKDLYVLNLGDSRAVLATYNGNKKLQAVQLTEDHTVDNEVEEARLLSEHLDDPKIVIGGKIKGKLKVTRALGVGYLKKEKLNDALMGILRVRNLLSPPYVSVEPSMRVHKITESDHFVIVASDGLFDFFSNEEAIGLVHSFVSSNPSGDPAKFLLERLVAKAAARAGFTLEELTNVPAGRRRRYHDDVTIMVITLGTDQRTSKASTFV
# B2: SNF1-related protein kinase catalytic subunit alpha KIN10 (Arabidopsis thaliana (Mouse-ear cress)), Q38997 (parent)
# chain: B1 chain
# partner: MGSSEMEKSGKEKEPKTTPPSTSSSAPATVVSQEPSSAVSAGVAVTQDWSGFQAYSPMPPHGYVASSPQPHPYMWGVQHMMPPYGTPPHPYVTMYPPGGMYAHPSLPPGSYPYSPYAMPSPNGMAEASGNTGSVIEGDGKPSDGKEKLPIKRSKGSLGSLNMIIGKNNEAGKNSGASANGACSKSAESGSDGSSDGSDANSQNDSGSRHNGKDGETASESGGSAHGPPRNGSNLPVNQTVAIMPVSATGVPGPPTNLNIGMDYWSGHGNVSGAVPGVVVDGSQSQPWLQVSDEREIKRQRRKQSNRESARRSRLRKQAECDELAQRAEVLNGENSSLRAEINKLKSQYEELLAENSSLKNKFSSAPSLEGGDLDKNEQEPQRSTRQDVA
# B3: SNF1-related protein kinase catalytic subunit alpha KIN10 (Arabidopsis thaliana (Mouse-ear cress)), Q38997 (parent)
# chain: B1 chain
# partner: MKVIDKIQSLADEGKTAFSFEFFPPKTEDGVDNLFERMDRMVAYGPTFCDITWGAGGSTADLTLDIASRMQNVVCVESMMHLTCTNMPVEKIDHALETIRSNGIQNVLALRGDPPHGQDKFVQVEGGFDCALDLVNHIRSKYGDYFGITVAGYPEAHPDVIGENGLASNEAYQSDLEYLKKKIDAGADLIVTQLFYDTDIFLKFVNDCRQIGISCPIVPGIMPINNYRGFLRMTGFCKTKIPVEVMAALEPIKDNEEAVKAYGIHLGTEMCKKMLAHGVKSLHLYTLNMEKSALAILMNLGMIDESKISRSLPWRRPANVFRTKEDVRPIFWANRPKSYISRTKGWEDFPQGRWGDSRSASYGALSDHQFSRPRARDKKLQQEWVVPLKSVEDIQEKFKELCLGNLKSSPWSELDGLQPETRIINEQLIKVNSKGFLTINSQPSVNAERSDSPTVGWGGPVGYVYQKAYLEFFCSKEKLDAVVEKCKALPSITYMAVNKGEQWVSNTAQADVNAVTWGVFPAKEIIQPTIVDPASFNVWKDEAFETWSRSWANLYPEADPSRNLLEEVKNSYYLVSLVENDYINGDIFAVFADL
# B4: SNF1-related protein kinase catalytic subunit alpha KIN10 (Arabidopsis thaliana (Mouse-ear cress)), Q38997 (parent)
# chain: B1 chain
# partner: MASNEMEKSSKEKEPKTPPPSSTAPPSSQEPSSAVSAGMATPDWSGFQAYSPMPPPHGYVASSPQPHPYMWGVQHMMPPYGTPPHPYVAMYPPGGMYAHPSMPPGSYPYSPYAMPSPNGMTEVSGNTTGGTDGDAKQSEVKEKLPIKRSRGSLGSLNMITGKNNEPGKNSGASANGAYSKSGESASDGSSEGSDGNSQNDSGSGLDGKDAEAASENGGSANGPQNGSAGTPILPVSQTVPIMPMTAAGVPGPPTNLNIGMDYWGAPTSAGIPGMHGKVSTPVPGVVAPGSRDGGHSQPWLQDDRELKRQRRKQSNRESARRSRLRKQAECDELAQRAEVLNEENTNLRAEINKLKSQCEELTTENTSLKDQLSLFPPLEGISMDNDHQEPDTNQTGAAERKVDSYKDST
# Variants of: B1
# Details: with p2c40, Q9LUS8
row,effect of a mutation on the interaction,Variant
1,disrupting interaction strength,MDGSGTGSRSGVESILPNYKLGRTLGIGSFGRVKIAEHALTGHKVAIMILNRRKIKNMEMEEKVRREIKILRLFMHPHIIRLYEVIETPTDIYLVMEYVNSGELFDYIVEKGRLQEDEARNFFQQIISGVEYCHRNMVVHRDLKPENLLLDSKCNVKIADFGLSNIMRDGHFLKTSCGSPNYAAPEVISGKLYAGPEVDVWSCGVILYALLCGTLPFDDENIPNLFKKIKGGIYTLPSHLSPGARDLIPRMLVVDPMKRVTIPEIRQHPWFQAHLPRYLAVPPPDTVQQAKKIDEEILQEVINMGFDRNHLIESLRNRTQNDGTVTYYLILDNRFRASSGYLGAEFQETMEGTPRMHPAESVASPVSHRLPGLMEYQGVGLRSQYPVERKWALGLQSRAHPREIMTEVLKALQDLNVCWKKIGHYNMKCRWVPNSSADGMLSNSMHDNNYFGDESSIIENEAAVKSPNVVKFEIQLYKTRDDKYLLDLQRVQGPQFLFLDLCAAFLAQLRVL [K48M]

# Variants of: B2
# Details: with bzp68_arath BZIP68, Q84LG2
row,effect of a mutation on the interaction,Variant
1,disrupting interaction strength,MDGSGTGSRSGVESILPNYKLGRTLGIGSFGRVKIAEHALTGHKVAIMILNRRKIKNMEMEEKVRREIKILRLFMHPHIIRLYEVIETPTDIYLVMEYVNSGELFDYIVEKGRLQEDEARNFFQQIISGVEYCHRNMVVHRDLKPENLLLDSKCNVKIADFGLSNIMRDGHFLKTSCGSPNYAAPEVISGKLYAGPEVDVWSCGVILYALLCGTLPFDDENIPNLFKKIKGGIYTLPSHLSPGARDLIPRMLVVDPMKRVTIPEIRQHPWFQAHLPRYLAVPPPDTVQQAKKIDEEILQEVINMGFDRNHLIESLRNRTQNDGTVTYYLILDNRFRASSGYLGAEFQETMEGTPRMHPAESVASPVSHRLPGLMEYQGVGLRSQYPVERKWALGLQSRAHPREIMTEVLKALQDLNVCWKKIGHYNMKCRWVPNSSADGMLSNSMHDNNYFGDESSIIENEAAVKSPNVVKFEIQLYKTRDDKYLLDLQRVQGPQFLFLDLCAAFLAQLRVL [K48M]

# Variants of: B3
# Details: with mthr2_arath MTHFR2, O80585
row,effect of a mutation on the interaction,Variant
1,disrupting interaction strength,MDGSGTGSRSGVESILPNYKLGRTLGIGSFGRVKIAEHALTGHKVAIMILNRRKIKNMEMEEKVRREIKILRLFMHPHIIRLYEVIETPTDIYLVMEYVNSGELFDYIVEKGRLQEDEARNFFQQIISGVEYCHRNMVVHRDLKPENLLLDSKCNVKIADFGLSNIMRDGHFLKTSCGSPNYAAPEVISGKLYAGPEVDVWSCGVILYALLCGTLPFDDENIPNLFKKIKGGIYTLPSHLSPGARDLIPRMLVVDPMKRVTIPEIRQHPWFQAHLPRYLAVPPPDTVQQAKKIDEEILQEVINMGFDRNHLIESLRNRTQNDGTVTYYLILDNRFRASSGYLGAEFQETMEGTPRMHPAESVASPVSHRLPGLMEYQGVGLRSQYPVERKWALGLQSRAHPREIMTEVLKALQDLNVCWKKIGHYNMKCRWVPNSSADGMLSNSMHDNNYFGDESSIIENEAAVKSPNVVKFEIQLYKTRDDKYLLDLQRVQGPQFLFLDLCAAFLAQLRVL [K48M]

# Variants of: B4
# Details: with bzp16_arath BZIP16, Q501B2
row,effect of a mutation on the interaction,Variant
1,disrupting interaction strength,MDGSGTGSRSGVESILPNYKLGRTLGIGSFGRVKIAEHALTGHKVAIMILNRRKIKNMEMEEKVRREIKILRLFMHPHIIRLYEVIETPTDIYLVMEYVNSGELFDYIVEKGRLQEDEARNFFQQIISGVEYCHRNMVVHRDLKPENLLLDSKCNVKIADFGLSNIMRDGHFLKTSCGSPNYAAPEVISGKLYAGPEVDVWSCGVILYALLCGTLPFDDENIPNLFKKIKGGIYTLPSHLSPGARDLIPRMLVVDPMKRVTIPEIRQHPWFQAHLPRYLAVPPPDTVQQAKKIDEEILQEVINMGFDRNHLIESLRNRTQNDGTVTYYLILDNRFRASSGYLGAEFQETMEGTPRMHPAESVASPVSHRLPGLMEYQGVGLRSQYPVERKWALGLQSRAHPREIMTEVLKALQDLNVCWKKIGHYNMKCRWVPNSSADGMLSNSMHDNNYFGDESSIIENEAAVKSPNVVKFEIQLYKTRDDKYLLDLQRVQGPQFLFLDLCAAFLAQLRVL [K48M]
